The record followed here is patent US11402384B2 (Duke University, priority 2015, dated 2022).

A short description of this assay: Ratiometric fluorescence glucose titration of fluorescent conjugates. Conditions: for Shape (fluorescence response to glucose): tsGBP2 cysteine scan; for Change (fluorescence response to glucose) / Kd: tsGBP 13C affinity mutants, Acrylodan or Badan conjugates. The format is binding. The arrangement: key to Shape (fluorescence response to glucose) / Change (fluorescence response to glucose): m, monochromatic; d, dichromatic (i.e. spectral shape change); 0, no change. In short, it runs like this:
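Single-cysteine glucose-binding protein mutants labelled site-specifically with thiol-reactive environmentally sensitive fluorophores; emission spectra recorded during glucose titration to detect ligand-mediated intensity and spectral-shape changes for ratiometric read-out. Temperature- and ligand-dependent fluorescence landscapes acquired in 1K steps; binding fitted to single-site fractional saturation.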

Where [1] appears, read: read-out: Glucose affinity ^appKd.
Where [2] appears, read: read-out: Glucose affinity ^trueKd.

Residue numbers refer to the chain shown, from its start. In names and notes the source's numbering stands. Read-outs that look alike come from different tables or passages of the source.

B1: W8C Badan: tsGBP2_C8 (SEQ ID NO: 17) Badan conjugate (conjugate)
chain: MKLEIFSCWAGDEGPALEALIRLYKQKYPGVEVINATVTGGAGVNAKAVLKTRMLGGDPPDTFQVHAGQELIGTWVVADRMEDLTSLFRQEGWLQAFPKGLIDLLSYKGGIWSVPVNIHRSNVMWYIPAKLKEWGVTPPKTWAEFLATAQTLKRKGLEAPLALGENWTQQHLWESVALATLGADGWNNLWSGKLKFTDPKAVAVWETFGKVLDAANKDAAGLSWQQAVDRVVQGKAAFNIMGDWAAGYMSTTLKLKPGTDFAWTPSPGTSGIFMMLSDSFGLPKGAKNRQNAINWLKLVGSKEGQDTFNPLKGSIAARLDSDPAKYNAYGQSAMKDWKSNRIVGSLVHGAVAPESFMSQFGTVMEIFLQSRNPQAAANAAQAIANQVGLGRGGSHHHHHH
modifications: Badan conjugate; tsGBP2_C8 (8C substitution mutant with signal peptide replaced with M and a GGSHHHHHH at C-terminus)
Take B1: for the setting “Badan conjugate”, the “Shape (fluorescence response to glucose)” value is “m”.

B2: W8F B: tsGBP2.13C.W8F (SEQ ID NO: 37) Badan conjugate (conjugate)
chain: B1 chain with C8F, E13C
modifications: Badan conjugate; tsGBP2.13C.W8F (13C, 8F double substitution mutant)
For B2, the “Change (fluorescence response to glucose)” value (“Change” for short) came to 0.

B3: W9Y B: tsGBP2.13C.W9Y (SEQ ID NO: 42) Badan conjugate (conjugate)
chain: B1 chain with C8W, W9Y, E13C
modifications: Badan conjugate; tsGBP2.13C.W9Y (13C, 9Y double substitution mutant with signal peptide replaced with M and a GGSHHHHHH at C-terminus)
In the case of B3, the “Change” value is “m”.

B4: W244M B: tsGBP2.13C.W244M (SEQ ID NO: 47) Badan conjugate (conjugate)
chain: B1 chain with C8W, E13C, W244M
modifications: Badan conjugate; tsGBP2.13C.W244M (13C, 244M double substitution mutant with signal peptide replaced with M and a GGSHHHHHH at C-terminus)
As for B4, the Kd under setting [1] was roughly 5 mM and the Kd under setting [2] is roughly 7 mM.

B5: W9F B: tsGBP2.13C.W9F (SEQ ID NO: 40) Badan conjugate (conjugate)
chain: B1 chain with C8W, W9F, E13C
modifications: Badan conjugate; tsGBP2.13C.W9F (13C 9F double substitution mutant with signal peptide replaced with M and a GGSHHHHHH at C-terminus)
For B5, the “Change” value was found to be 0.

B6: W244M A: tsGBP2.13C.W244M (SEQ ID NO: 47) Acrylodan conjugate (conjugate)
chain: B1 chain with C8W, E13C, W244M
modifications: Acrylodan conjugate; tsGBP2.13C.W244M (13C, 244M double substitution mutant with signal peptide replaced with M and a GGSHHHHHH at C-terminus)
For the molecule B6, the Kd reads like this: under setting [1], roughly 40 mM; under setting [2], roughly 20 mM.

B7: W9C Badan: tsGBP2_C9 (SEQ ID NO: 18) Badan conjugate (conjugate)
chain: B1 chain with C8W, W9C
modifications: Badan conjugate; tsGBP2_C9 (9C substitution mutant with signal peptide replaced with M and a GGSHHHHHH at C-terminus)
As for B7, the “Shape (fluorescence response to glucose)” value (Badan conjugate) is on record as “m”.

B8: W9F A: tsGBP2.13C.W9F (SEQ ID NO: 40) Acrylodan conjugate (conjugate)
chain: B1 chain with C8W, W9F, E13C
modifications: Acrylodan conjugate; tsGBP2.13C.W9F (13C 9F double substitution mutant with signal peptide replaced with M and a GGSHHHHHH at C-terminus)
For B8, the “Change” value is reported as “m”.

B9: W8Y B: tsGBP2.13C.W8Y (SEQ ID NO: 39) Badan conjugate (conjugate)
chain: B1 chain with C8Y, E13C
modifications: Badan conjugate; tsGBP2.13C.W8Y (13C, 8Y double substitution mutant with signal peptide replaced with M and a GGSHHHHHH at C-terminus)
For B9, the “Change” value is on record as 0.

B10: W9M A: tsGBP2.13C.W9M (SEQ ID NO: 41) Acrylodan conjugate (conjugate)
chain: B1 chain with C8W, W9M, E13C
modifications: Acrylodan conjugate; tsGBP2.13C.W9M (13C 9M double substitution mutant with signal peptide replaced with M and a GGSHHHHHH at C-terminus)
Consider B10, for which the “Change” value is recorded as “m”.

B11: W9C Acrylodan: tsGBP2_C9 (SEQ ID NO: 18) Acrylodan conjugate (conjugate)
chain: B1 chain with C8W, W9C
modifications: Acrylodan conjugate; tsGBP2_C9 (9C substitution mutant with signal peptide replaced with M and a GGSHHHHHH at C-terminus)
In the case of B11, the “Shape (fluorescence response to glucose)” value (Acrylodan conjugate) is “m”.

B12: W8M B: tsGBP2.13C.W8M (SEQ ID NO: 38) Badan conjugate (conjugate)
chain: B1 chain with C8M, E13C
modifications: Badan conjugate; tsGBP2.13C.W8M (13C, 8M double substitution mutant with signal peptide replaced with M and a GGSHHHHHH at C-terminus)
For B12, the “Change” value was “m”.

B13: W9M B: tsGBP2.13C.W9M (SEQ ID NO: 41) Badan conjugate (conjugate)
chain: B1 chain with C8W, W9M, E13C
modifications: Badan conjugate; tsGBP2.13C.W9M (13C 9M double substitution mutant with signal peptide replaced with M and a GGSHHHHHH at C-terminus)
As to B13, the “Change” value is listed as “m^c”.

B14: H66Q B: tsGBP2.13C.H66Q (SEQ ID NO: 46) Badan conjugate (conjugate)
chain: B1 chain with C8W, E13C, H66Q
modifications: Badan conjugate; tsGBP2.13C.H66Q (13C, 66Q double substitution mutant with signal peptide replaced with M and a GGSHHHHHH at C-terminus)
Turning to B14, the “Change” value was “m”. Further, the Kd under setting [1] is roughly 0.1 mM. For the same molecule, the Kd under setting [2] was roughly 0.09 mM.

B15: W8F A: tsGBP2.13C.W8F (SEQ ID NO: 37) Acrylodan conjugate (conjugate)
chain: B1 chain with C8F, E13C
modifications: Acrylodan conjugate; tsGBP2.13C.W8F (13C, 8F double substitution mutant)
Regarding B15, the “Change” value stood at 0.

B16: W8Y A: tsGBP2.13C.W8Y (SEQ ID NO: 39) Acrylodan conjugate (conjugate)
chain: B1 chain with C8Y, E13C
modifications: Acrylodan conjugate; tsGBP2.13C.W8Y (13C, 8Y double substitution mutant with signal peptide replaced with M and a GGSHHHHHH at C-terminus)
As for B16, the “Change” value is “m/d^c”.

B17: H66Q A: tsGBP2.13C.H66Q (SEQ ID NO: 46) Acrylodan conjugate (conjugate)
chain: B1 chain with C8W, E13C, H66Q
modifications: Acrylodan conjugate; tsGBP2.13C.H66Q (13C, 66Q double substitution mutant with signal peptide replaced with M and a GGSHHHHHH at C-terminus)
As to B17, the Kd was roughly 20 mM under setting [1] and roughly 7 mM under setting [2].

B18: Q64M B: tsGBP2.13C.Q64M (SEQ ID NO: 45) Badan conjugate (conjugate)
chain: B1 chain with C8W, E13C, Q64M
modifications: Badan conjugate; tsGBP2.13C.Q64M (13C, 64M double substitution mutant with signal peptide replaced with M and a GGSHHHHHH at C-terminus)
As for B18, the “Change” value was “m”.

B19: Q64M A: tsGBP2.13C.Q64M (SEQ ID NO: 45) Acrylodan conjugate (conjugate)
chain: B1 chain with C8W, E13C, Q64M
modifications: Acrylodan conjugate; tsGBP2.13C.Q64M (13C, 64M double substitution mutant with signal peptide replaced with M and a GGSHHHHHH at C-terminus)
As for B19, the “Change” value is on record as “m/d”.
